Key:
Experiment in all cases: purified protein
[1] = test system: Nc1ncnc2c1ncn2[C@@H]1O[C@H](COP(=O)(O)OP(=O)(O)O)[C@@H](O)[C@H]1O; details: reverse direction, 1 mM 25-phospho-CDO, 10 mM MgCl2, 9% (w/v) HPCD, 50 mM Tris/HCl pH 7.8, 30 °C
[2] = test system: Nc1ncnc2c1ncn2[C@@H]1O[C@H](COP(=O)(O)OP(=O)(O)OP(=O)(O)O)[C@@H](O)[C@H]1O; details: forward direction, 1 mM 25-OH-CDO, 10 mM MgCl2, 9% (w/v) HPCD, 50 mM Tris/HCl pH 7.8, 30 °C
[3] = test system: C[C@H](CCCC(C)(C)O)[C@H]1CC[C@H]2[C@@H]3CCC4=CC(=O)C=C[C@]4(C)[C@H]3CC[C@]12C; details: forward direction, 5 mM ATP, 10 mM MgCl2, 9% (w/v) HPCD, 50 mM Tris/HCl pH 7.8, 30 °C
[4] = test system: C[C@H](CCCC(C)(C)OP(=O)(O)O)[C@H]1CC[C@H]2[C@@H]3CCC4=CC(=O)C=C[C@]4(C)[C@H]3CC[C@]12C; details: reverse direction, 5 mM ADP, 10 mM MgCl2, 9% (w/v) HPCD, 50 mM Tris/HCl pH 7.8, 30 °C, apparent, tested only up to 4 mM, no saturation

Substance: 25-HSK (25-hydroxy-steroid kinase) (Sterolibacterium denitrificans)
- Km [1]: 35 ± 3 µM
- Km [2]: 800 ± 50 µM
- Km [3]: 300 ± 10 µM
- Km [4]: 8000 ± 700 µM

— article PMC8449060, “A fully reversible 25-hydroxy steroid kinase involved in oxygen-independent cholesterol side-chain oxidation” (The Journal of Biological Chemistry, 2021)
